From US20240261333A1, “NOVEL TARGETS FOR ENHANCING ANTI-TUMOR IMMUNITY” (THE BROAD INSTITUTE, INC., priority 2021, published 2024)

T1: B3GNT2 (Homo sapiens, UniProt Q9NY97)
T1 construct: The respective ORFs of candidate genes [CD274 (NM_014143), MCL1 (NM_021960), JUNB (NM_002229), and B3GNT2 (NM_006577)] were synthesized; expressed in transfected cells; host or cells: A375 melanoma cells (lentiviral ORF overexpression)
T1 sequence (Q9NY97 1-397): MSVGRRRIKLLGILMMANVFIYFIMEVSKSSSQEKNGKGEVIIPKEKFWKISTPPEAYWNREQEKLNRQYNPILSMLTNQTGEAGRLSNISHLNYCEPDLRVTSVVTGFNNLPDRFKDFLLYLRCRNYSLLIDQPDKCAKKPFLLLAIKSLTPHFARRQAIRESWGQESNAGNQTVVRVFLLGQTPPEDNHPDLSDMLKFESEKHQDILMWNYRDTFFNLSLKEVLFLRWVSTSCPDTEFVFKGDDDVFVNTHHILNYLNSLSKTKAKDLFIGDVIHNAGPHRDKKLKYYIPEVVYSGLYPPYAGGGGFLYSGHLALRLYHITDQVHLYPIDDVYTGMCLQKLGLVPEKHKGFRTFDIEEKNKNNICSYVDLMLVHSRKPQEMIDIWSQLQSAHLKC

B1: SMN1 (protein)
chain: AMSSGGSGGGVPEQEDSVLFRRGTGQSDDSDIWDDTALIKAYDKAVASFKHALKNGDICETSGKPKTTPKRKPAKKNKSQKKNTAASLQQWKVGDKCSAIWSEDGCIYPATIASIDFKRETCVVVYTGYGNREEQNLSDLLSPICEVANNIEQNAQENENESQVSTDESENSRSPGNKSDNIKPKSAPWNSFLPPPPPMPGPRLGPGKPGLKFNGPPPPPPPPPPHLLSCWLPPFPSGPPIIPPPPPICPDSLDDADALGSMLISWYMSGYHTGYYMEMLA
B2: PGK1 (protein)
chain: SLSNKLTLDKLDVKGKRVVMRVDFNVPMKNNQITNNQRIKAAVPSIKFCLDNGAKSVVLMSHLGRPDGVPMPDKYSLEPVAVELKSLLGKDVLFLKDCVGPEVEKACANPAAGSVILLENLRFHVEEEGKGKDASGNKVKAEPAKIEAFRASLSKLGDVYVNDAFGTAHRAHSSMVGVNLPQKAGGFLMKKELNYFAKALESPERPFLAILGGAKVADKIQLINNMLDKVNEMIIGGGMAFTFLKVLNNMEIGTSLFDEEGAKIVKDLMSKAEKNGVKITLPVDFVTADKFDENAKTGQATVASGIPAGWMGLDCGPESSKKYAEAVTRAKQIVWNGPVGVFEWEAFARGTKALMDEVVKATSRGCITIIGGGDTATCCAKWNTEDKVSHVSTGGGASLELLEGKVLPGVDALSNI
B3: SLC25A10 (protein)
chain: MAAEARVSRWYFGGLASCGAACCTHPLDLLKVHLQTQQEVKLRMTGMALRVVRTDGILALYSGLSASLCRQMTYSLTRFAIYETVRDRVAKGSQGPLPFHEKVLLGSVSGLAGGFVGTPADLVNVRMQNDVKLPQGQRRNYAHALDGLYRVAREEGLRRLFSGATMASSRGALVTVGQLSCYDQAKQLVLSTGYLSDNIFTHFVASFIAAAGDEPPPQGGCATFLCQPLDVLKTRLMNSKGEYQGVFHCAVETAKLGPLAFYKGLVPAGIRLIPHTVLTFVFLEQLRKNFGIKVPS
B4: TM9SF3 (protein)
chain: DEHEHTYQDKEEVVLWMNTVGPYHNRQETYKYFSLPFCVGSKKSISHYHETLGEALQGVELEFSGLDIKFKDDVMPATYCEIDLDKEKRDAFVYAIKNHYWYQMYIDDLPIWGIVGEADENGEDYYLWTYKKLEIGFNGNRIVDVNLTSEGKVKLVPNTKIQMSYSVKWKKSDVKFEDRFDKYLDPSFFQHRIHWFSIFNSFMMVIFLVGLVSMILMRTLRKDYARYSKEEEMDDMDRDLGDEYGWKQVHGDVFRPSSHPLIFSSLIGSGCQIFAVSLIVIIVAMIEDLYTERGSMLSTAIFVYAATSPVNGYFGGSLYARQGGRRWIKQMFIGAFLIPAMVCGTAFFINFIAIYYHASRAIPFGTMVAVCCICFFVILPLNLVGTILGRNLSGQPNFPCRVNAVPRPIPEKKWFMEPAVIVCLGGILPFGSIFIEMYFIFTSFWAYKIYYVYGFMMLVLVILCIVTVCVTIVCTYFLLNAEDYRWQWTSFLSAASTAIYVYMYSFYYYFFKTKMYGLFQTSFYFGYMAVFSTALGIMCGAIGYMGTSAFVRKIYTNVKID
B5: MYO1D (protein)
chain: AEQESLEFGKADFVLMDTVSMPEFMANLRLRFEKGRIYTFIGEVVVSVNPYKLLNIYGRDTIEQYKGRELYERPPHLFAIADAAYKAMKRRSKDTCIVISGESGAGKTEASKYIMQYIAAITNPSQRAEVERVKNMLLKSNCVLEAFGNAKTNRNDNSSRFGKYMDINFDFKGDPIGGHINNYLLEKSRVIVQQPGERSFHSFYQLLQGGSEQMLRSLHLQKSLSSYNYIHVGAQLKSSINDAAEFRVVADAMKVIGFKPEEIQTVYKILAAILHLGNLKFVVDGDTPLIENGKVVSIIAELLSTKTDMVEKALLYRTVATGRDIIDKQHTEQEASYGRDAFAKAIYERLFCWIVTRINDIIEVKNYDTTIHGKNTVIGVLDIYGFEIFDNNSFEQFCINYCNEKLQQLFIQLVLKQEQEEYQREGIPWKHIDYFNNQIIVDLVEQQHKGIIAILDDACMNVGKVTDEMFLEALNSKLGKHAHFSSRKLCASDKILEFDRDFRIRHYAGDVVYSVIGFIDKNKDTLFQDFKRLMYNSSNPVLKNMWPEGKLSITEVTKRPLTAATLFKNSMIALVDNLASKEPYYVRCIKPNDKKSPQIFDDERCRHQVEYLGLLENVRVRRAGFAFRQTYEKFLHRYKMISEFTWPNHDLPSDKEAVKKLIERCGFQDDVAYGKTKIFIRTPRTLFTLEELRAQMLIRIVLFLQKVWRGTLARMRYKRTKAALTIIRYYRRYKVKSYIHEVARRFHGVKTMRDYGKHVKWPSPPKVLRRFEEALQTIFNRWRASQLIKSIPASDLPQVRAKVAAVEMLKGQRADLGLQRAWEGNYLASKPDTPQTSGTFVPVANELKRKDKYMNVLFSCHVRKVNRFSKVEDRAIFVTDRHLYKMDPTKQYKVMKTIPLYNLTGLSVSNGKDQLVVFHTKDNKDLIVCLFSKQPTHESRIGELVGVLVNHFKSEKRHLQVNVTNPVQCSLHGKKCTVSVETRLNQPQPDFTKNRSGFILSVPGN
B6: HLA-A (protein)
MHC heavy: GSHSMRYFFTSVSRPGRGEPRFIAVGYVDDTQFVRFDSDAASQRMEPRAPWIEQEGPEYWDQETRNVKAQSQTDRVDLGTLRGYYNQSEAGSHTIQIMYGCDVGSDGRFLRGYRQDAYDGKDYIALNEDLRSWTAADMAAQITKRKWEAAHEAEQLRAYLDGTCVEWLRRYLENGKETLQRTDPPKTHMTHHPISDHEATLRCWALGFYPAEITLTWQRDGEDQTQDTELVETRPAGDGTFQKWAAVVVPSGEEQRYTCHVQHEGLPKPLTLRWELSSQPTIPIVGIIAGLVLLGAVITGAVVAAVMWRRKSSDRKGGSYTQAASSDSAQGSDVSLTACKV
B7: SLC25A22 (protein)
chain: MADKQISLPAKLINGGIAGLIGVTCVFPIDLAKTRLQNQQNGQRVYTSMSDCLIKTVRSEGYFGMYRGAAVNLTLVTPEKAIKLAANDFFRHQLSKDGQKLTLLKEMLAGCGAGTCQVIVTTPMEMLKIQLQDAGRIAAQRKILAAQGQLSAQGGAQPSVEAPAAPRPTATQLTRDLLRSRGIAGLYKGLGATLLRDVPFSVVYFPLFANLNQLGRPASEEKSPFYVSFLAGCVAGSAAAVAVNPCDVVKTRLQSLQRGVNEDTYSGILDCARKILRHEGPSAFLKGAYCRALVIAPLFGIAQVVYFLGIAESLLGLLQDPQA
B8: ACSL3 (protein)
chain: MNNHVSSKPSTMKLKHTINPILLYFIHFLISLYTILTYIPFYFFSESRQEKSNRIKAKPVNSKPDSAYRSVNSLDGLASVLYPGCDTLDKVFTYAKNKFKNKRLLGTREVLNEEDEVQPNGKIFKKVILGQYNWLSYEDVFVRAFNFGNGLQMLGQKPKTNIAIFCETRAEWMIAAQACFMYNFQLVTLYATLGGPAIVHALNETEVTNIITSKELLQTKLKDIVSLVPRLRHIITVDGKPPTWSEFPKGIIVHTMAAVEALGAKASMENQPHSKPLPSDIAVIMYTSGSTGLPKGVMISHSNIIAGITGMAERIPELGEEDVYIGYLPLAHVLELSAELVCLSHGCRIGYSSPQTLADQSSKIKKGSKGDTSMLKPTLMAAVPEIMDRIYKNVMNKVSEMSSFQRNLFILAYNYKMEQISKGRNTPLCDSFVFRKVRSLLGGNIRLLLCGGAPLSATTQRFMNICFCCPVGQGYGLTESAGAGTISEVWDYNTGRVGAPLVCCEIKLKNWEEGGYFNTDKPHPRGEILIGGQSVTMGYYKNEAKTKADFFEDENGQRWLCTGDIGEFEPDGCLKIIDRKKDLVKLQAGEYVSLGKVEAALKNLPLVDNICAYANSYHSYVIGFVVPNQKELTELARKKGLKGTWEELCNSCEMENEVLKVLSEAAISASLEKFEIPVKIRLSPEPWTPETGLVTDAFKLKRKELKTHYQADIERMYGRK
B9: SFXN3 (protein)
chain: MGELPLDINIQEPRWDQSTFLGRARHFFTVTDPRNLLLSGAQLEASRNIVQNYRAGVVTPGITEDQLWRAKYVYDSAFHPDTGEKVVLIGRMSAQVPMNMTITGCMLTFYRKTPTVVFWQWVNQSFNAIVNYSNRSGDTPITVRQLGTAYVSATTGAVATALGLKSLTKHLPPLVGRFVPFAAVAAANCINIPLMRQRELQVGIPVADEAGQRLGYSVTAAKQGIFQVVISRICMAIPAMAIPPLIMDTLEKKDFLKRRPWLGAPLQVGLVGFCLVFATPLCCALFPQKSSIHISNLEPELRAQIHEQNPSVEVVYYNKGL

These molecules were tested against T1, B3GNT2 (assay: Co-IP of FLAG-tagged B3GNT2 followed by mass spectrometry). Conditions: Co-IP with FLAG antibody, C-terminally FLAG-tagged B3GNT2; mass spectrometry count, unit not given.
Type: cell-based
Design: C-term IgG / C-term flag: unit not given here
Summary of the method: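 Co-purifying proteins were identified by fractionated nano-LC–MS/MS on an Orbitrap Elite, run data-dependent. Beforehand, lysates in 1% Triton X-100/HEPES buffer were incubated overnight at 4° C with anti-FLAG or […] and pulled down on Protein A/G magnetic beads for 4 h. Duplicate biological replicates.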

C-term flag | Molecule
14 | B1
2 | B2
6 | B3
11 | B4
2 | B5
2 | B7
5 | B8
2 | B9

Molecule | C-term flag
B6 | 4

Same assay, conditions: Co-IP with FLAG antibody, N-terminally FLAG-tagged B3GNT2; mass spectrometry count, unit not given

N-term FLAG | Molecule
10 | B1
0 | B2
5 | B3
0 | B4
0 | B5
0 | B7
5 | B8
0 | B9

Molecule | N-term FLAG
B6 | 6

Same assay, conditions: Co-IP with IgG control antibody, C-terminally FLAG-tagged B3GNT2; mass spectrometry count, unit not given

C-term IgG | Molecule
2 | B1
0 | B2
0 | B3
0 | B4
0 | B5
0 | B7
0 | B8
0 | B9

Molecule | C-term IgG
B6 | 0

Same assay, conditions: Co-IP with IgG control antibody, N-terminally FLAG-tagged B3GNT2; mass spectrometry count, unit not given

N-term IgG | Molecule
0 | B1
0 | B2
0 | B3
0 | B4
0 | B5
0 | B7
0 | B8
0 | B9

Molecule | N-term IgG
B6 | 0
